Target: biotinylated gp41 MPER peptide RRR-(656-683)-RRK-biotin (HIV-1)
Test: SPR: biotinylated MPER peptide on an SA chip, Fab as analyte, 1:1 Langmuir fit

Substance | Kd [nM]
4E10 Fab | 0.74
2F5 Fab | 3.8

Reference: US20140348785A1
